Measured values as given in US20230201308A1, “TREATMENT OF CORONAVIRUS INFECTION WITH […]” (Eiger Biopharmaceuticals, Inc., priority 2020, published 2023).

Tests used:
SARS-CoV-2 MA = tested on: SARS-CoV-2 MA; parameters: species or system BALB/c mice; details: mouse, in vivo, sc
SARS-CoV-2 [1] = assay: First trial: single 180 mcg dose vs placebo in 120 participants with COVID-19; assay type: in vivo, human
Protocol: Using the methods and criteria described above in Examples 1-3, a first trial was performed. In the first trial, 120 participants were enrolled; 70 (58.3%) were male, 75 (62.5%) identified as Latinx, and the median duration of symptoms prior to randomization was 5 days. Sixty participants were randomly assigned to receive 180 mcg pegylated interferon lambda-1a, and 60 participants were assigned to receive a placebo. […] Subjects viral samples were taken by oral pharyngeal swabs. The median time to cessation of viral shedding was 7 days in both arms (hazard ratio [HR] for duration of shedding 0.81 comparing Lambda vs. placebo; 95% confidence interval [CI] 0.56 to 1.19; p=0.29). No difference in time to resolution of symptoms was observed comparing interferon lambda vs. placebo (HR 0.94; 95% CI 0.64 to 1.39; p=0.76). Two serious adverse events were reported in each arm. Liver transaminase elevations were more common in the interferon lambda vs. placebo arm (15/60 vs 5/60; p=0.027).

SARS-CoV-2 [2] = assay: Second trial: outpatients with mild to moderate COVID-19, SARS-CoV-2 RNA viral load and clearance; assay type: in vivo, human
Protocol: Using the methods and criteria described above in Examples 1-3, a second trial was performed to assess interferon lambda for immediate antiviral therapy at diagnosis in COVID-19 infections. The second trial included a randomized trial of pegylated interferon lambda in outpatients with mild to moderate COVID-19 infection.
Thirty participants were randomly assigned to receive 180 mcg pegylated interferon lambda-1a, and 30 participants were assigned to receive a saline placebo. Patients were followed for 14 days. Nasopharyngeal samples were collected. The baseline SARS-CoV-2 viral load in the interferon lambda group was 6.2 log10 copies/mL and was 4.9 log10 copies/mL in the placebo group. In the interferon lambda group (19 subjects) and placebo (16 subjects) groups, there were a total of 35 subjects with viral loads great or equal to 6 log10 copies/mL.

SARS-CoV-2 [3] = assay: Third trial (TOGETHER): virological assessment, quantitative real-time PCR of mid-turbinate swabs; assay type: in vivo, human; details: for proportion of participants with a negative swab for SARS-CoV-2 RNA: Canadian cohort
[4] = baseline RNA above 10^6 copies/mL
[5] = baseline viral load below 10^6 copies/mL

B1: pegylated interferon lambda-1a (protein)
chain: MKPTTTGKGCHIGRFKSLSPQELASFKKARDALEESLKLKNWSCSSPVFPGNWDLRLLQVRERPVALEAELALTLKVLEAAAGPALEDVLDQPLHTLHHILSQLQACIQPQPTAGPRPRGRLHHWLHRLQEAPKKESAGCLEASVTFNLFRLLTRDLKYVADGNLSLRTSTHPEST
modifications: PEG
notes: 180 mcg subcutaneous injection
SARS-CoV-2 MA
  SARS-CoV-2 MA replication in the lung (lung viral titer): significantly diminished
  viral titer in the nasal turbinates: did not alter
SARS-CoV-2 [1]; seronegative at baseline
  shedding cessation relative to placebo: delayed shedding cessation relative to placebo
SARS-CoV-2 [1]; seropositive at baseline
  shedding cessation relative to placebo: appeared to hasten shedding cessation
SARS-CoV-2 [1]; single 180 mcg s.c.
  effect on duration of viral shedding and symptoms compared to placebo: neither shortened the duration of SARS-CoV-2 viral shedding nor improved symptoms
  hazard ratio for duration of shedding vs. placebo: 0.81
  hazard ratio, time to resolution of symptoms vs. placebo: 0.94
  liver transaminase elevations (participants of arm): 15/60
  serious adverse events reported in the arm: Two
  tolerability: well tolerated
SARS-CoV-2 [1]; single 180 mcg s.c., n=60
  median time to cessation of viral shedding: 7 days
SARS-CoV-2 [2]; Adjusted for Asymptomatic at baseline, all patients
  OR of response (clearance) at Day 7 vs Placebo: 2.91
SARS-CoV-2 [2]; Adjusted for Asymptomatic at baseline, ≥10E6 copies/mL
  OR of response (clearance) at Day 7 vs Placebo: 0.00
SARS-CoV-2 [2]; Adjusted for BMI, all patients
  OR of response (clearance) at Day 7 vs Placebo: 2.37
SARS-CoV-2 [2]; Adjusted for BMI, ≥10E6 copies/mL
  OR of response (clearance) at Day 7 vs Placebo: 6.73
SARS-CoV-2 [2]; Adjusted for IFNL4 genotype, all patients
  OR of response (clearance) at Day 7 vs Placebo: 2.24
SARS-CoV-2 [2]; Adjusted for IFNL4 genotype, ≥10E6 copies/mL
  OR of response (clearance) at Day 7 vs Placebo: 7.66
SARS-CoV-2 [2]; Adjusted for age, all patients
  OR of response (clearance) at Day 7 vs Placebo: 2.48
SARS-CoV-2 [2]; Adjusted for age, ≥10E6 copies/mL
  OR of response (clearance) at Day 7 vs Placebo: 9.42
SARS-CoV-2 [2]; Adjusted for comorbidity, all patients
  OR of response (clearance) at Day 7 vs Placebo: 2.35
SARS-CoV-2 [2]; Adjusted for comorbidity, ≥10E6 copies/mL
  OR of response (clearance) at Day 7 vs Placebo: 10.46
SARS-CoV-2 [2]; Adjusted for sex, all patients
  OR of response (clearance) at Day 7 vs Placebo: 2.36
SARS-CoV-2 [2]; Adjusted for sex, ≥10E6 copies/mL
  OR of response (clearance) at Day 7 vs Placebo: 6.44
SARS-CoV-2 [2]; Adjusted for viral load at baseline, all patients
  OR of response (clearance) at Day 7 vs Placebo: 4.12
SARS-CoV-2 [2]; Adjusted for viral load at baseline, ≥10E6 copies/mL
  OR of response (clearance) at Day 7 vs Placebo: 8.16
SARS-CoV-2 [2]; Adjusted for viral load with interaction, baseline 10E3 copies/mL
  OR of response (clearance) at Day 7 vs Placebo: 1.45
SARS-CoV-2 [2]; Adjusted for viral load with interaction, baseline 10E4 copies/mL
  OR of response (clearance) at Day 7 vs Placebo: 1.88
SARS-CoV-2 [2]; Adjusted for viral load with interaction, baseline 10E5 copies/mL
  OR of response (clearance) at Day 7 vs Placebo: 2.43
SARS-CoV-2 [2]; Adjusted for viral load with interaction, baseline 10E6 copies/mL
  OR of response (clearance) at Day 7 vs Placebo: 3.14
SARS-CoV-2 [2]; Adjusted for viral load with interaction, baseline 10E7 copies/mL
  OR of response (clearance) at Day 7 vs Placebo: 4.05
SARS-CoV-2 [2]; Adjusted for viral load with interaction, baseline 10E8 copies/mL
  OR of response (clearance) at Day 7 vs Placebo: 5.23
SARS-CoV-2 [2]; Adjusted for viral load with interaction, baseline 10E9 copies/mL
  OR of response (clearance) at Day 7 vs Placebo: 6.76
SARS-CoV-2 [2]; Crude, all patients
  OR of response (clearance) at Day 7 vs Placebo: 2.32
SARS-CoV-2 [2]; Crude, ≥10E6 copies/mL at baseline
  OR of response (clearance) at Day 7 vs Placebo: 6.25
SARS-CoV-2 [2]; Day 3, all patients
  viral load decline greater than in placebo group: 0.82 log copies/mL
SARS-CoV-2 [2]; Day 5, all patients
  viral load decline greater than in placebo group: 1.67 log copies/mL
SARS-CoV-2 [2]; Day 7, all patients
  viral load decline greater than in placebo group: 2.42 log copies/mL
SARS-CoV-2 [2]; Day 14, all patients
  viral load decline greater than in placebo group: 1.77 log copies/mL
SARS-CoV-2 [2]; [4]
  median time to viral clearance: 7 (95% CI 6.2-7.8) days
  undetectable at Day 7, participants: 15 of 19
  undetectable at Day 7, proportion: 79%
SARS-CoV-2 [2]; [5]
  OR undetectable at Day 7 vs placebo: 0.35
  undetectable at Day 7, participants: 9 of 11
  undetectable at Day 7, proportion: 82%
SARS-CoV-2 [2]; by Day 7, all patients
  negative for SARS-CoV-2 RNA, participants: 24/30
  negative for SARS-CoV-2 RNA, proportion: 80%
  viral level decrease in absolute terms: 5.5 log copies/mL
SARS-CoV-2 [2]; by Day 7, baseline viral load at or above 10E6 copies/mL
  viral load decline: 7.17 log copies/mL
SARS-CoV-2 [2]; high baseline viral load
  detectable virus at Day 7, participants: 4 of 19
  detectable virus at Day 7, proportion: 21%
SARS-CoV-2 [2]; interaction model, all patients
  OR of response at Day 7 for viral load at baseline within the IFN Lambda group: 0.82
SARS-CoV-2 [2]; interferon lambda group
  shedding of infectious virus at day 7: all subjects were below the level of shedding infectious virus at day 7
SARS-CoV-2 [3]; Day 0 post injection
  proportion of participants with a negative swab for SARS-CoV-2 RNA: 0
SARS-CoV-2 [3]; Day 1 post injection
  proportion of participants with a negative swab for SARS-CoV-2 RNA: 0
SARS-CoV-2 [3]; Day 2 post injection
  proportion of participants with a negative swab for SARS-CoV-2 RNA: 7
SARS-CoV-2 [3]; Day 3 post injection
  proportion of participants with a negative swab for SARS-CoV-2 RNA: 27
SARS-CoV-2 [3]; Day 4 post injection
  proportion of participants with a negative swab for SARS-CoV-2 RNA: 40
SARS-CoV-2 [3]; Day 5 post injection
  proportion of participants with a negative swab for SARS-CoV-2 RNA: 60
SARS-CoV-2 [3]; Day 6 post injection
  proportion of participants with a negative swab for SARS-CoV-2 RNA: 64
SARS-CoV-2 [3]; Day 7, high baseline viral load
  odds ratio, below the limit of quantitation vs placebo: 2.13
